The source of these data is patent publication US20120315270A1.

The target of assay [1] is RSV F0 Fd (respiratory syncytial virus, strain A2) (UniProt P03420). Nature of the assay: densitometry of SDS-PAGE of the gel filtration complex peak. (In general: Size exclusion chromatography separates by hydrodynamic size, large species first.)
In assay [2] the target is RSV F glycoprotein on GFP-expressing RSV (respiratory syncytial virus) (UniProt P03420).

In assay [1], palivizumab Fab gave a Fabs per trimer (Fabs per trimer) of 2.97.
In turn, SYNAGIS® IgG (palivizumab) (antibody) returned an EC50 (read off the curve), neutralization of GFP-expressing RSV on HEp-2 cells, flow cytometry in assay [2] of 0.5 nM.
